Assay [1] deals with Atf1-G196-GFP at the tdh1 promoter. Nature of the assay: chromatin immunoprecipitation (ChIP) in fission yeast. Particulars: promoter of tdh1 gene (CRE consensus site); 3 μL mAb G196; qPCR. It counts as cell-based. Here is the method:
Yeast cells were grown in YES medium at 30 °C to mid-log phase. After formaldehyde crosslinking and quenching, 1 × 10^8 cells were harvested to obtain 2 mL of soluble input extract. M-280 anti-mouse sheep antibody-conjugated magnetic beads (112-02, ThermoFisher Scientific) were used for immunoprecipitation: 200 μL of the beads were washed twice with extraction buffer (50 mM HEPES-KOH (pH 7.5), 140 mM NaCl, 1 mM EDTA, 1% Triton X-100, and 0.1% sodium deoxycholate), and then incubated in 1 mL of extraction buffer containing 3 μL of mAb G196 for 1 h at 4 °C. The beads were again washed twice with extraction buffer to remove unbound antibodies and incubated for 1 h with 800 μL of input extract at 4 °C. The relative concentrations of the target sequences were determined using SYBR Premix ExTaq (RR041A, TaKaRa Bio, Shiga, Japan) and a Thermal Cycler Dice Real Time System TP800 (TaKaRa Bio), according to the manufacturer’s instructions. The primers for detecting the −1 kb region were 5′-[…]-3′ and 5′-[…]-3′, and for the tdh1 CRE region the primers were 5′-[…]-3′ and 5′-[…]-3′.
(In general: Real-time PCR tracks product formation cycle by cycle.)

For the next assay, the system named is Atf1-G196-GFP. As to the kind of experiment: Western blot analysis of fission yeast extracts. It counts as cell-based. Particulars: C-terminally 3 × G196-tagged Atf1, mAb G196 1:2000. An excerpt: C-terminal tagging of the atf1 gene (Supplementary Fig. 1) was accomplished using the G196t2 primer. This primer contains a sequence homologous to a portion of the atf1 coding sequence, a sequence for 3 × G196-tag, and a sequence homologous to another primer, com5. In the first PCR step, two sequences flanking the translational stop codon of the atf1 gene were amplified with the primers t1 and G196t2, and with the primers t3 and t4, using the genomic DNA as a template. The GFP-kanMX cassette was also amplified with the primers com5 and com6, using pFA6a-GFP(S65T)-kanMX as a template. The three PCR products were fused together in the second PCR step with the primers t1 and t4 to produce a DNA fragment for homologous recombination.
Cells (1 × 10^8) growing exponentially in YES medium at 30 °C were harvested to obtain whole cell extracts as described elsewhere. Samples were resolved by SDS-PAGE on 7% gels, semi-dry blotted to PVDF membranes, and detected using an ECL detection system (PerkinElmer, Waltham, MA, USA). Mouse mAb G196 (1:2000) and anti-GFP rabbit polyclonal antibody (1:1000) were used as primary antibodies. HRP-conjugated goat anti-mouse antibody (1:5000, Rockland Immunochemicals) and anti-rabbit antibody (1:2000, Jackson ImmunoResearch Laboratories) were used as secondary antibodies.

B1: mAb G196: mouse mAb (IgG1) raised against GST protein bacterially expressed using the pGEX-2T vector (antibody, V domains shown)
VH: QVKLQESGAELVKPGASVKLSCKASGYTFTNYWMHWVKLRPGQGFEWIGEINPSNGGSNYNEKFKRKATLTVDKSSSTAYMQLSSLTSEDSAVFYCSIWDSYFDYWGQGTTLTVSS
VL: NIVMTQSPKSMSMSVGERVTLTCKASENVVTYVSWYQQKPEQSPKLLIYGASNRYTGVPDRFTGSGSATDFTLTISSVQAEDLADYHCGQGYSYPYTFGGGTKLEIK
As for B1, in assay [1], the “ChIP of Atf1” value is “enriched the Atf1 protein at the promoter of the tdh1 gene”. Besides, the “detection of Atf1 by Western blot” value in the assay on Atf1-G196-GFP was “detected the Atf1 protein”.

(Values after PMC5339894, “G196 epitope tag system: a novel monoclonal antibody, G196, recognizes the small, soluble peptide DLVPR with high affinity” (Scientific Reports, 2017).)
